Laboratory results taken from patent US20070014736A1, “Methods of delivering corticotroph-derived glycoprotein hormone” (priority 2005, published 2007).

How the values were obtained:
[1] = system: Delayed Type Hypersensitivity (DTH) reaction; assay: Delayed Type Hypersensitivity (DTH), change in ear thickness; format: in vivo, mice
[2] = system: NCI-H295R; assay: CRE-luciferase reporter assay in NCI-H295R adrenal cortex cells; format: cell-based, human
Text: Summary: A human adrenal cortex cell line, NCI-H295R, was used to study signal transduction of CGH. NCI-H295R was transduced with recombinant adenovirus containing a reporter construct, a firefly luciferase gene under the control of cAMP response element (CRE) enhancer sequences. This assay system detects cAMP-mediated gene induction downstream of activation of Gs-coupled GPCR's (G-protein coupled receptors). […] Typically, CGH elicited a maximal response of 15-40-fold luciferase induction above control media.
NCI-H295R cells were obtained from the ATCC (CRL-2128, Manassas, Va.) and cultured in growth medium as follows: 1:1 mixture of Dulbecco's modified Eagle's medium and Ham's F12 medium with L-glutamine (D-MEM/F-12; GIBCO, cat.#11320-033) containing 25 mM HEPES buffer (GIBCO, Invitrogen, Carlsbad, Calif., cat.#15630-080), 1 mM sodium pyruvate (GIBCO, cat.#11360-070), 1% ITS+1 media supplement (Sigma St. Louis, Mo. cat#I2521) and 2.5% Nu-Se I (BD Biosciences, Lexington, Ky. cat.#355100). Cells were cultured at 37° C. in a 5% CO2 humidified incubator. […]
Promega's Luciferase Assay System (Promega, Madison, Wis., cat. #E1500) was used to process the treated cells. […] Luciferase activity was measured on a microplate luminometer (PerkinElmer Life Sciences, Inc., model LB 96V2R) following automated injection of luciferase assay substrate.

[3] = system: human primary adipocytes; assay: CRE-luciferase reporter assay in human primary adipocytes; format: cell-based
Text: (§1) Differentiated murine 3T3 L1 adipocytes and primary human adipocytes were used to study signal transduction of CGH. 3T3 L1 fibroblasts were differentiated into adipocytes and the cells were transduced with recombinant adenovirus containing a reporter construct, a firefly luciferase gene under the control of cAMP response element (CRE) enhancer sequences. This assay system detects cAMP-mediated gene induction downstream of activation of Gs-coupled G-protein coupled receptors (GPCR's). […] In a separate experiment, undifferentiated 3T3 L1 fibroblasts were transduced with the recombinant adenovirus. […] In another experiment, human primary adipocytes were also transduced with the recombinant adenovirus containing a reporter construct. Treatment of the human adipocytes with isoproterenol produced a 17-fold induction of luciferase expression.
(§2) Cells were cultured at 37° C. in an 8% CO2 humidified incubator. Cells were seeded to collagen-coated 96-well plates (Becton Dickinson, cat. #356407) at a density of 5,000 cells per well. […] Luciferase activity was measured on a microplate luminometer (PerkinElmer Life Sciences, Inc., model LB 96V2R) following automated injection of 40 μl of luciferase assay substrate into each well. […]

[4] = system: undifferentiated 3T3 L1 fibroblasts; assay: CRE-luciferase reporter assay in undifferentiated 3T3 L1 fibroblasts; format: cell-based, murine
Text: as §1, §2

[5] = Expt 1, 0.2 mg/kg CGH i.p. at challenge (d7), 24 h
[6] = Expt 1, 2.0 mg/kg CGH i.p. at challenge (d7), 24 h
[7] = Expt 2, 0.2 mg/kg CGH i.p. at challenge (d7)
[8] = Expt 2, 2.0 mg/kg CGH i.p. at challenge (d7)
[9] = Expt 3, 0.2 mg/kg CGH i.p. at sensitization (d0-4)
[10] = Expt 3, 2.0 mg/kg CGH i.p. at sensitization (d0-4)

B1: CGH: heterodimeric protein hormone comprised of alpha subunit GPHA2 and beta subunit GPHB5, recombinantly produced in CHO cells (protein)
chain 1: QEAVIPGCHLHPFNVTVRSDRQGTCQGSHVAQACVGHCESSAFPSRYSVLVASGYRHNITSVSQCCTISGLKKVKVQLQCVGSRREELEIFTARACQCDMCRLSRY
chain 2: ASSGNLRTFVGCAVREFTFLAKKPGCRGLRITTDACWGRCETWEKPILEPPYIEAHHRVCTYNETKQVTVKLPNCAPGVDPFYTYPVAIRCDCGACSTATTECETI
B1 was tested, and the “Change in ear thickness, left ear (PBS)” value [1, 5] was 0.17 +/− 0.95 ×10^−3 inch, the “Change in ear thickness, right ear (OVA)” value [1, 5] was 3.48 +/− 0.79 ×10^−3 inch and the “Change in ear thickness, left ear (PBS)” value [1, 6] was 0.21 +/− 0.34 ×10^−3 inch. The “Change in ear thickness, right ear (OVA)” value [1, 6] was 2.48 +/− 1.05 ×10^−3 inch, the “Change in ear thickness, left ear (PBS)” value [1, 7] was 0.65 +/− 0.63 ×10^−3 inch and the “Change in ear thickness, right ear (OVA)” value [1, 7] was 4.41 +/− 0.95 ×10^−3 inch. The “Change in ear thickness, left ear (PBS)” value [1, 8] was 0.67 +/− 1.05 ×10^−3 inch, the “Change in ear thickness, right ear (OVA)” value [1, 8] was 3.92 +/− 1.00 ×10^−3 inch and the “Change in ear thickness, left ear (PBS)” value [1, 9] was 1.31 +/− 0.42 ×10^−3 inch. The “Change in ear thickness, right ear (OVA)” value [1, 9] was 4.06 +/− 0.73 ×10^−3 inch, the “Change in ear thickness, left ear (PBS)” value [1, 10] was 1.11 +/− 0.49 ×10^−3 inch and the “Change in ear thickness, right ear (OVA)” value [1, 10] was 4.57 +/− 1.58 ×10^−3 inch. For the same molecule, the “maximal response, luciferase induction above control media” value ([2]; CRE-luciferase, 4 h) was 15-40 fold, the “induction of luciferase activity compared with 10 μM forskolin” value ([2]; dose-dependent) was “equal to or higher than that induced by 10 μM forskolin” and the “induction of luciferase expression / reporter gene” value [3] was 14 fold. The reporter gene induction [4] was “did not result in an increase in reporter gene induction”.
